From US20130045895A1 (published 2013)
Changes are numbered by the printed parent chain. Numbers in names are those of the source.

B1: DOM7h-11-15 A43D (other, name in Kabat numbering)
VL: DIQMTQSPSSLSASVGDRVTITCRASRPIGTMLSWYQQKPGKDPKLLILAFSRLQSGVPSRFSGSGSGTDFTLTISSLQPEDFATYYCAQAGTHPTTFGQGTKVEIKR
notes: also called A43D mutant of DOM7h-11-15
B2: DOM7h-14-10 A43D (other, name in Kabat numbering)
VL: DIQMTQSPSSLSASVGDRVTITCRASQWIGSQLSWYQQKPGKDPKLLIMWRSSLQSGVPSRFSGSGSGTDFTLTISSLQPEDFATYYCAQGLRHPKTFGQGTKVEIKR
notes: also called A43D mutant of DOM7h-14-10
B3: DOM7h-14-10 (other)
VL: B2 VL with D43A
notes: also called DOM7h-14-10 parent
B4: DOM7h-14 A43C (other)
VL: B2 VL with D43C, L92A, R93A, H94L, K96R
B5: DOM7h-14 Q38L (other)
VL: B2 VL with Q38L, D43A, L92A, R93A, H94L, K96R
B6: DOM7h-14 Q38W (other)
VL: B2 VL with Q38W, D43A, L92A, R93A, H94L, K96R
B7: DOM7h-14 Q38P (other)
VL: B2 VL with Q38P, D43A, L92A, R93A, H94L, K96R
B8: DOM7h-14 Q38E (other)
VL: B2 VL with Q38E, D43A, L92A, R93A, H94L, K96R
B9: DOM7h-14 A43Y (other)
VL: B2 VL with D43Y, L92A, R93A, H94L, K96R
B10: DOM7h-14 A43E (other)
VL: B2 VL with D43E, L92A, R93A, H94L, K96R
B11: DOM7h-14 A43R (other)
VL: B2 VL with D43R, L92A, R93A, H94L, K96R
B12: DOM7h-14 P44T (other)
VL: B2 VL with D43A, P44T, L92A, R93A, H94L, K96R
B13: DOM7h-14 Q38H (other)
VL: B2 VL with Q38H, D43A, L92A, R93A, H94L, K96R
B14: DOM7h-14 A43S (other)
VL: B2 VL with D43S, L92A, R93A, H94L, K96R
B15: DOM7h-14 P44I (other)
VL: B2 VL with D43A, P44I, L92A, R93A, H94L, K96R
B16: DOM7h-14 P44S (other)
VL: B2 VL with D43A, P44S, L92A, R93A, H94L, K96R
B17: DOM7h-14 Q38G (other)
VL: B2 VL with Q38G, D43A, L92A, R93A, H94L, K96R
B18: DOM7h-14 A43G (other)
VL: B2 VL with D43G, L92A, R93A, H94L, K96R
B19: DOM7h-14 P44A (other)
VL: B2 VL with D43A, P44A, L92A, R93A, H94L, K96R
B20: DOM7h-14 Q38D (other)
VL: B2 VL with Q38D, D43A, L92A, R93A, H94L, K96R
B21: DOM7h-14 P44C (other)
VL: B2 VL with D43A, P44C, L92A, R93A, H94L, K96R
B22: DOM7h-14 P44M (other)
VL: B2 VL with D43A, P44M, L92A, R93A, H94L, K96R
B23: DOM7h-14 A43H (other)
VL: B2 VL with D43H, L92A, R93A, H94L, K96R
B24: DOM7h-14 Q38F (other)
VL: B2 VL with Q38F, D43A, L92A, R93A, H94L, K96R
B25: DOM7h-14 Q38S (other)
VL: B2 VL with Q38S, D43A, L92A, R93A, H94L, K96R
B26: DOM7h-14 Q38A (other)
VL: B2 VL with Q38A, D43A, L92A, R93A, H94L, K96R
B27: DOM7h-14 Q38R (other)
VL: B2 VL with Q38R, D43A, L92A, R93A, H94L, K96R
B28: DOM7h-14 A43T (other)
VL: B2 VL with D43T, L92A, R93A, H94L, K96R
B29: DOM7h-14 P44E (other)
VL: B2 VL with D43A, P44E, L92A, R93A, H94L, K96R
B30: DOM7h-14 P44H (other)
VL: B2 VL with D43A, P44H, L92A, R93A, H94L, K96R
B31: DOM7h-14 P44W (other)
VL: B2 VL with D43A, P44W, L92A, R93A, H94L, K96R
B32: DOM7h-14 P44K (other)
VL: B2 VL with D43A, P44K, L92A, R93A, H94L, K96R
B33: DOM7h-14 A43I (other)
VL: B2 VL with D43I, L92A, R93A, H94L, K96R
B34: DOM7h-14 P44N (other)
VL: B2 VL with D43A, P44N, L92A, R93A, H94L, K96R
B35: DOM7h-14 P44G (other)
VL: B2 VL with D43A, P44G, L92A, R93A, H94L, K96R
B36: DOM7h-14 P44R (other)
VL: B2 VL with D43A, P44R, L92A, R93A, H94L, K96R
B37: DOM7h-14 Q38V (other)
VL: B2 VL with Q38V, D43A, L92A, R93A, H94L, K96R
B38: DOM7h-14 A43F (other)
VL: B2 VL with D43F, L92A, R93A, H94L, K96R
B39: DOM7h-14 P44Q (other)
VL: B2 VL with D43A, P44Q, L92A, R93A, H94L, K96R
B40: DOM7h-14 A43P (other)
VL: B2 VL with D43P, L92A, R93A, H94L, K96R
B41: DOM7h-14 Q38C (other)
VL: B2 VL with Q38C, D43A, L92A, R93A, H94L, K96R
B42: DOM7h-14 Q38M (other)
VL: B2 VL with Q38M, D43A, L92A, R93A, H94L, K96R
B43: DOM7h-14 P44L (other)
VL: B2 VL with D43A, P44L, L92A, R93A, H94L, K96R
B44: DOM7h-14 A43L (other)
VL: B2 VL with D43L, L92A, R93A, H94L, K96R
B45: DOM7h-14 A43N (other)
VL: B2 VL with D43N, L92A, R93A, H94L, K96R
B46: DOM7h-14 Q38T (other)
VL: B2 VL with Q38T, D43A, L92A, R93A, H94L, K96R
B47: DOM7h-14 P44D (other)
VL: B2 VL with D43A, P44D, L92A, R93A, H94L, K96R
B48: DOM7h-14 A43K (other)
VL: B2 VL with D43K, L92A, R93A, H94L, K96R
B49: DOM7h-14 Q38N (other)
VL: B2 VL with Q38N, D43A, L92A, R93A, H94L, K96R
B50: DOM7h-14 A43M (other)
VL: B2 VL with D43M, L92A, R93A, H94L, K96R
B51: DOM7h-14 Q38Y (other)
VL: B2 VL with Q38Y, D43A, L92A, R93A, H94L, K96R
B52: DOM7h-14 Q38K (other)
VL: B2 VL with Q38K, D43A, L92A, R93A, H94L, K96R
B53: DOM7h-14 A43V (other)
VL: B2 VL with D43V, L92A, R93A, H94L, K96R
B54: DOM7h-14 P44V (other)
VL: B2 VL with D43A, P44V, L92A, R93A, H94L, K96R
B55: DOM7h-14 Q38I (other)
VL: B2 VL with Q38I, D43A, L92A, R93A, H94L, K96R

target: T1, Human Serum Albumin (human, UniProt P02768 25-609); test: SPR (Biacore 2000), purified dAb over HSA (559 RU) on CM5 chip
T1 construct: also called HSA; antigen
T1 sequence (P02768 25-609 limits assumed): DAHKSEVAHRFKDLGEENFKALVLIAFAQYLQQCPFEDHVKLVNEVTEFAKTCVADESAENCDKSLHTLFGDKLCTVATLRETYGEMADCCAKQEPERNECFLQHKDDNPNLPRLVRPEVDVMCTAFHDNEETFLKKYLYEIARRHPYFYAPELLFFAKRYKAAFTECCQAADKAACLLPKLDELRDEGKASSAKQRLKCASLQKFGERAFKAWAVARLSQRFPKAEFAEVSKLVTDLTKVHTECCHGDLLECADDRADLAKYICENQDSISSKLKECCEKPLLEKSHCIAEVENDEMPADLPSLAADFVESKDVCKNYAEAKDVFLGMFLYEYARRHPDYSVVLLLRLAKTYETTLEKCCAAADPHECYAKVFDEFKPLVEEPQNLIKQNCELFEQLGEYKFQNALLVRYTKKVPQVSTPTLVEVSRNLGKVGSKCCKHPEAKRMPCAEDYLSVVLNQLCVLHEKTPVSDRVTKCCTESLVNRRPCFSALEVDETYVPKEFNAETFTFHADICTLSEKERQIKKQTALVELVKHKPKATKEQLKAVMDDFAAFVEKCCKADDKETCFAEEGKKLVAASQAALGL
Excerpt: (§1) The data analysis followed routine and established algorithms using the instrument's software (Bia-evaluation 3.2 RC1).

Row | Binder | Kd [nM] | koff [s⁻¹] | kon [M⁻¹ s⁻¹]
1 | B1 | 7000 | 0.0047 | 664
2 | B2 | 11.7 | 0.012 | 990000
3 | B3 | 26 | 0.017 | 670000

target: T1, Human Serum Albumin; test: BIAcore, supernatant over immobilised HSA (6036 RU);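 also: expressed culture supernatants of mutant clones diluted 1:1 in HBS-EP buffer and screened for binding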
Description: Screening of expressed supernatants for Protein L and HSA binding: Mutant clones were picked into a 96 well plate format and expressed in 1 mL 2×TY 0.1 mg/ml carbenicillin supplemented with OnEx solutions 1, 2 and 3 according to the manufacturer's instructions (Novagen). Cultures were grown at 30° C. for 3 days at 950 rpm high humidity in an InforsHT shaker. Cells were pelleted by centrifugation (4.5 k in a bench top Sorvall centrifuge for 30 mins) and 75 μL of the supernatant added to an equal volume of HBS-EP buffer (GE Healthcare).

Row | Binder | binding result
4 | B4 | binds
5 | B5 | binds
6 | B6 | binds
7 | B7 | binds
8 | B8 | binds
9 | B9 | binds
10 | B10 | binds
11 | B11 | binds
12 | B12 | binds
13 | B13 | binds
14 | B14 | binds
15 | B15 | binds
16 | B16 | binds
17 | B17 | binds
18 | B18 | binds
19 | B19 | binds
20 | B20 | binds
21 | B21 | binds
22 | B22 | binds
23 | B23 | binds
24 | B24 | binds
25 | B25 | binds
26 | B26 | binds
27 | B27 | binds
28 | B28 | binds
29 | B29 | binds

Row | Binder | binding result
30 | B30 | binds
31 | B31 | binds
32 | B32 | binds
33 | B33 | binds
34 | B34 | binds
35 | B35 | binds
36 | B36 | binds
37 | B37 | binds
38 | B38 | binds
39 | B39 | binds
40 | B40 | binds
41 | B41 | binds
42 | B42 | binds
43 | B43 | binds
44 | B44 | binds
45 | B45 | binds
46 | B46 | binds
47 | B47 | binds
48 | B48 | binds
49 | B49 | binds
50 | B50 | binds
51 | B51 | binds
52 | B52 | binds
53 | B53 | binds
54 | B54 | binds
55 | B55 | binds

target: T1, Human Serum Albumin; test: SPR (Biacore 2000), purified dAb over HSA (559 RU) on CM5 chip; remark: another data set of the same source
Excerpt: as §1

Row | Binder | fold improvement in antigen affinity over DOM7h-14-10 [fold]
56 | B2 | 2
